# Test results from paper PMC10511499.
# B1: LIS1, wild type, as used in mass photometry (construct not told) [human] / human Ndel1 coiled-coil domain (Ndel1^CC, residues 1-195) [human] (parent)
# chain 1: MVLSQRQRDELNRAIADYLRSNGYEEAYSVFKKEAELDVNEELDKKYAGLLEKKWTSVIRLQKKVMELESKLNEAKEEFTSGGPLGQKRDPKEWIPRPPEKYALSGHRSPVTRVIFHPVFSVMVSASEDATIKVWDYETGDFERTLKGHTDSVQDISFDHSGKLLASCSADMTIKLWDFQGFECIRTMHGHDHNVSSVAIMPNGDHIVSASRDKTIKMWEVQTGYCVKTFTGHREWVRMVRPNQDGTLIASCSNDQTVRVWVVATKECKAELREHEHVVECISWAPESSYSSISEATGSETKKSGKPGPFLLSGSRDKTIKMWDVSTGMCLMTLVGHDNWVRGVLFHSGGKFILSCADDKTLRVWDYKNKRCMKTLNAHEHFVTSLDFHKTAPYVVTGSVDQTVKVWECR
# chain 2: MDGEDIPDFSSLKEETAYWKELSLKYKQSFQEARDELVEFQEGSRELEAELEAQLVQAEQRNRDLQADNQRLKYEVEALKEKLEHQYAQSYKQVSVLEDDLSQTRAIKEQLHKYVRELEQANDDLERAKRATIVSLEDFEQRLNQAIERNAFLESELDEKESLLVSVQRLKDEARDLRQELAVRERQQEVTRKSA
# B2: full-length yeast Pac1 with C-terminal FLAG-SNAPf [S. cerevisiae] / yeast Ndl1 coiled-coil domain (Ndl1^CC, residues 2-132) [S. cerevisiae] (parent)
# chain 1: MTNWQQQLPLTDTQKNELDKSVLRYLNWNYKQTVRHEHAQDYESVRHAIVTLSGFLLQESVDRQEFISNNDTSNESMVDIDELLLPKKWNSIVRLQKKIIELEQNTETLVSQIKDLNTQVSELAQFKPTTSNGTSAHNVLKWIPRNLPSCLINVESSVTSVKLHPNLPIVFVATDHGKLYAFDLFNYTIPLASLQSHTKAITSMDVLFTNYTNSSKKNYLVIVTASKDLQIHVFKWVSEECKFQQIRSLLGHEHIVSAVKIWQKNNDVHIASCSRDQTVKIWDFHNGWSLKTFQPHSQWVRSIDVLGDYIISGSHDTTLRLTHWPSGNGLSVGTGHEFPIEKVKFIHFIEDSPEIRFRTPSTDRYKNWGMQYCVSASRDRTIKIWEIPLPTLMAHRAPIPNPTDSNFRCVLTLKGHLSWVRDISIRGQYLFSCADDKSVRCWDLNTGQCLHVWEKLHTGFVNCLDLDVDFDSNVTPRQMMVTGGLDCKSNVFMR
# chain 2: VPNLDLETAIQIISSLETQLSELEGATKEYENDLEQVISKLKSDLLESQQQNKCNKKQITDLEIQVDELENENIQLRNKIETLQLESDRRLERNVLLEHELLDTKEALQKLRVSKEEATSGETRRNTRSLP
# Variants of: B1
# Assay: mass photometry
# Settings: with human Ndel1 coiled-coil domain (Ndel1^CC, residues 1-195) [human]; Proteins mixed at a 1:1 molar ratio
row,screen value [%],Variant
1,0,chain 1 W340A
2,5,chain 1 R316A

# Variants of: B2
# Assay: mass photometry
# Settings: with yeast Ndl1 coiled-coil domain (Ndl1^CC, residues 2-132) [S. cerevisiae]; Proteins mixed at a 1:1 molar ratio
row,screen value [%],Variant
1,0,chain 1 R275A R301A R378A W419A K437A
